± gives the standard deviation of the averaged measurements.
Experiment: total protein half-life in vivo (active degradation + dilution); higher = more stable protein
[1] = E. coli NCM3722 delta-clpP delta-lon delta-hslV, growth: N-lim chemostat, doubling time 6 h
[2] = E. coli NCM3722 delta-clpP, growth: N-lim chemostat, doubling time 6 h
[3] = E. coli NCM3722 delta-hslV, growth: N-lim chemostat, doubling time 6 h
[4] = E. coli NCM3722 delta-lon, growth: N-lim chemostat, doubling time 6 h
[5] = E. coli NCM3722 delta-smpB, growth: N-lim chemostat, doubling time 6 h
[6] = wild type E. coli NCM3722, growth: C-lim chemostat, doubling time 3 h
[7] = wild type E. coli NCM3722, growth: C-lim chemostat, doubling time 6 h
[8] = wild type E. coli NCM3722, growth: C-lim chemostat, doubling time 12 h
[9] = wild type E. coli NCM3722, growth: N-lim chemostat, doubling time 6 h
[10] = wild type E. coli NCM3722, growth: N-lim chemostat, doubling time 12 h
[11] = wild type E. coli NCM3722, growth: P-lim chemostat, doubling time 6 h
[12] = wild type E. coli NCM3722, growth: P-lim chemostat, doubling time 12 h

MERYESLFAQLKERKEGAFVPFVTLGDPGIEQSLKIIDTLIEAGADALELGIPFSDPLADGPTIQNATLRAFAAGVTPAQCFEMLALIRQKHPTIPIGLLMYANLVFNKGIDEFYAQCEKVGVDSVLVADVPVEESAPFRQAALRHNVAPIFICPPNADDDLLRQIASYGRGYTYLLSRAGVTGAENRAALPLNHLVAKLKEYNAAPPLQGFGISAPDQVKAAIDAGAAGAISGSAIVKIIEQHINEPEKMLAALKVFVQPMKAATRS [P0A877]
total protein half-life in vivo [1]: 3.93 ± 0.57 h | total protein half-life in vivo [2]: 3.89 ± 0.84 h | total protein half-life in vivo [3]: 3.44 ± 0.066 h | total protein half-life in vivo [4]: 4.07 ± 0.48 h | total protein half-life in vivo [5]: 3.69 ± 0.17 h | total protein half-life in vivo [6]: 3.084 ± 0.021 h | total protein half-life in vivo [7]: 5.81 ± 0.23 h | total protein half-life in vivo [8]: 8.972 ± 0.077 h | total protein half-life in vivo [9]: 3.61 ± 0.21 h | total protein half-life in vivo [10]: 5.06 ± 0.87 h | total protein half-life in vivo [11]: 5.39 ± 0.16 h | total protein half-life in vivo [12]: 12 ± 0.5 h

MESKRLDNAALAAGISPNYINAHGKPQSISAETKRRLLDAMHQRTATKVAVTPVPNVMVYTSGKKMPMVVEGSGEYSWLLTTEEGTQYKGHVTGGKAFNLPTKLPEGYHTLTLTQDDQRAHCRVIVAPKRCYEPQALLNKQKLWGACVQLYTLRSEKNWGIGDFGDLKAMLVDVAKRGGSFIGLNPIHALYPANPESASPYSPSSRRWLNVIYIDVNAVEDFHLSEEAQAWWQLPTTQQTLQQARDADWVDYSTVTALKMTALRMAWKGFAQRDDEQMAAFRQFVAEQGDSLFWQAAFDALHAQQVKEDEMRWGWPAWPEMYQNVDSPEVRQFCEEHRDDVDFYLWLQWLAYSQFAACWEISQGYEMPIGLYRDLAVGVAEGGAETWCDRELYCLKASVGAPPDILGPLGQNWGLPPMDPHIITARAYEPFIELLRANMQNCGALRIDHVMSMLRLWWIPYGETADQGAYVHYPVDDLLSILALESKRHRCMVIGEDLGTVPVEIVGKLRSSGVYSYKVLYFENDHEKTFRAPKAYPEQSMAVAATHDLPTLRGYWECGDLTLGKTLGLYPDEVVLRGLYQDRELAKQGLLDALHKYGCLPKRAGHKASLMSMTPTLNRGLQRYIADSNSALLGLQPEDWLDMAEPVNIPGTSYQYKNWRRKLSATLESMFADDGVNKLLKDLDRRRRAAAKKK
total protein half-life in vivo [1]: 6.24 ± 0.17 h | total protein half-life in vivo [2]: 6.29 ± 0.23 h | total protein half-life in vivo [4]: 4.12 ± 1.7 h | total protein half-life in vivo [5]: 5.57 ± 0.12 h | total protein half-life in vivo [7]: 6.27 ± 0.46 h | total protein half-life in vivo [8]: 13.5 ± 1.4 h | total protein half-life in vivo [9]: 6.03 ± 0.061 h | total protein half-life in vivo [10]: 12.1 ± 0.58 h | total protein half-life in vivo [11]: 5.25 ± 0.14 h | total protein half-life in vivo [12]: 10.3 ± 0.19 h

MESKVVVPAQGKKITLQNGKLNVPENPIIPYIEGDGIGVDVTPAMLKVVDAAVEKAYKGERKISWMEIYTGEKSTQVYGQDVWLPAETLDLIREYRVAIKGPLTTPVGGGIRSLNVALRQELDLYICLRPVRYYQGTPSPVKHPELTDMVIFRENSEDIYAGIEWKADSADAEKVIKFLREEMGVKKIRFPEHCGIGIKPCSEEGTKRLVRAAIEYAIANDRDSVTLVHKGNIMKFTEGAFKDWGYQLAREEFGGELIDGGPWLKVKNPNTGKEIVIKDVIADAFLQQILLRPAEYDVIACMNLNGDYISDALAAQVGGIGIAPGANIGDECALFEATHGTAPKYAGQDKVNPGSIILSAEMMLRHMGWTEAADLIVKGMEGAINAKTVTYDFERLMDGAKLLKCSEFGDAIIENM
total protein half-life in vivo [1]: 4.7 ± 0.38 h | total protein half-life in vivo [2]: 4.36 ± 0.53 h | total protein half-life in vivo [3]: 4.05 ± 0.061 h | total protein half-life in vivo [4]: 4.61 ± 0.056 h | total protein half-life in vivo [5]: 4.1 ± 0.047 h | total protein half-life in vivo [6]: 3.16 ± 0.068 h | total protein half-life in vivo [7]: 5.584 ± 0.048 h | total protein half-life in vivo [8]: 10.1 ± 0.64 h | total protein half-life in vivo [9]: 4.08 ± 0.24 h | total protein half-life in vivo [10]: 6.47 ± 0.1 h | total protein half-life in vivo [11]: 5.73 ± 0.1 h | total protein half-life in vivo [12]: 12.3 ± 0.41 h

MESLLTLPLAGEARVRILQITDTHLFAQKHEALLGVNTWESYQAVLEAIRPHQHEFDLIVATGDLAQDQSSAAYQHFAEGIASFRAPCVWLPGNHDFQPAMYSALQDAGISPAKRVFIGEQWQILLLDSQVFGVPHGELSEFQLEWLERKLADAPERHTLLLLHHHPLPAGCSWLDQHSLRNAGELDTVLAKFPHVKYLLCGHIHQELDLDWNGRRLLATPSTCVQFKPHCSNFTLDTIAPGWRTLELHADGTLTTEVHRLADTRFQPDTASEGY [P0AEW4]
total protein half-life in vivo [1]: 5.15 ± 0.77 h | total protein half-life in vivo [2]: 4.65 ± 0.26 h | total protein half-life in vivo [3]: 4.6 ± 0.28 h | total protein half-life in vivo [4]: 4.98 ± 0.096 h | total protein half-life in vivo [5]: 4.34 ± 0.65 h | total protein half-life in vivo [6]: 2.948 ± 0.017 h | total protein half-life in vivo [7]: 5.4 ± 0.74 h | total protein half-life in vivo [8]: 11.6 ± 1.3 h | total protein half-life in vivo [9]: 4.56 ± 0.88 h | total protein half-life in vivo [10]: 8.5 ± 0.45 h | total protein half-life in vivo [11]: 4.435 ± 0.035 h | total protein half-life in vivo [12]: 8.69 ± 0.43 h

MESLMPWDARDTMSLRTEFVLFASQDGANIRSLCRRFGISPATGYKWLQRWAQEGAAGLQDRPRIPHHSPNRSSDDITALLRMAHDRHERWGARKIKRWLEDQGHTMPAFSTVHNLMARHGLLPGASPGIPATGRFEHDAPNRLWQMDFKGHFPFGGGRCHPLTLLDDHSRFSLCLAHCTDERRETVQQQLVSVFERYGLPDRMTMDNGSPWGDTTGTWTALELWLMRLGIRVGHSRPYHPQTQGKLERFHRSLKAEVLQGKWFADSGELQRAFDHWRTVYNLERPHEALDMAVPGSRYQPSARQYSGNTTPPEYDEGVMVRKVDISGKLSVKGVSLSAGKAFRGERVGLKEMQEDGSYEVWWYSTKVGVIDLKKKSITMGKGC
total protein half-life in vivo [1]: 3.5 ± 0.88 h | total protein half-life in vivo [2]: 3.06 h | total protein half-life in vivo [7]: 2.18 h | total protein half-life in vivo [8]: 5.67 h | total protein half-life in vivo [10]: 4.45 h

MESLSEGTTAGYQQIHDGIIHLVDSARTETVRSVNALMTATYQEIGRRIVEFEQGGEARAAYGAQLIKRLSKDLCLRYKRGFSAKNLRQMRLFYLFFQHVEIHQTMSGELTPLGIPQTPSAEFPSAKIWQTLSAKSFPLPRSTYVRLLSVKNADARSFYEKETLRCGWSVRQLERQIATQFYERTLLSHDKSAMLQQHAPAETHILPQQAIRDPFVLEFLELKDEYSESDFEEALINHLMDFMLELGDDFAFVGRQRRLRIDDNWFRVDLLFFHRRLRCLLIVDLKVGKFSYSDAGQMNMYLNYAKEHWTLPDENPPIGLVLCAEKGAGEAHYALAGLPNTVLASEYKMQLPDEKRLADELVRTQAVLEEGYRRR
total protein half-life in vivo [3]: 5.34 h | total protein half-life in vivo [7]: 5.89 h

MESPLGSDLARLVRIWRALIDHRLKPLELTQTHWVTLHNIHQLPPDQSQIQLAKAIGIEQPSLVRTLDQLEEKGLISRQTCASDRRAKRIKLTEKAEPLISEMEAVINKTRAEILHGISAEELEQLITLIAKLEHNIIELQAKG [P0A8W2]
total protein half-life in vivo [1]: 5.958 ± 0.04 h | total protein half-life in vivo [2]: 5.81 ± 0.18 h | total protein half-life in vivo [3]: 5.88 ± 0.54 h | total protein half-life in vivo [5]: 5.79 ± 0.084 h | total protein half-life in vivo [6]: 3.38 ± 0.4 h | total protein half-life in vivo [7]: 5.19 ± 0.19 h | total protein half-life in vivo [8]: 11.38 ± 0.033 h | total protein half-life in vivo [9]: 5.01 ± 0.34 h | total protein half-life in vivo [10]: 11 ± 2.7 h | total protein half-life in vivo [11]: 4.64 ± 1.1 h | total protein half-life in vivo [12]: 9.76 ± 0.57 h
